# Where no end group is shown, it is not given here. [ ]: non-standard residue; d: D form. AlaP = not defined here
# Tests used:
# [1] = target: T1, Proteinase 3 (Homo sapiens, UniProt P24158); assay: Protease inhibition assay, second order rate constant kobs/[I] (method of Tian and Tsou); type: biochemical
# T1 sequence (P24158 28-248): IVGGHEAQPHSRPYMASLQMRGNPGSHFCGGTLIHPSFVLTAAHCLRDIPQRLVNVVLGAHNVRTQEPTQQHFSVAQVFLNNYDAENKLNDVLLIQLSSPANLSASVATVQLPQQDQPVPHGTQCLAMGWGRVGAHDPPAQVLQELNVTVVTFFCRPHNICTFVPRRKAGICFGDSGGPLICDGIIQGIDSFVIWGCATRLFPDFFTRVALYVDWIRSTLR
# Experimental: The compounds of the invention are advantageously selective inhibitors of PR3. […] As described under the Examples below (see PR3 inhibition assay), and as is generally known, efficacy of particular inhibitors against a target protease, for example, recombinant human PR3, is determined by combining the target with a substrate (for example Suc-AanV-SBzI), both in the absence of the inhibitor and in the present of different concentrations of such inhibitor to be tested. Typically, the efficacy of irreversible inhibitors are measured in terms of the second order rate constant of inhibition value (11) or kobs/l. Preferred inhibitors of the invention have typically a kobs/I of more than 10 M^−1s^−1, preferably more than 100 M^−1s^−1, and more preferably of more than […].
# (§1) The inactivation of proteases by substrate analog inhibitors in the presence of the substrate by competition for the enzyme-binding site, was measured by the method of Tian and Tsou (17). In this system, product formation in the presence of an irreversible inhibitor approaches an asymptote, as described by
# (§2) log([P∞]−[P])=log [P∞]−0.43A[Y]t
# (§3) where [P∞] is the concentration of product formed at time approaching infinity, [P] is the concentration of product at time t, [Y] is the inhibitor concentration, and A is the apparent inhibition rate constant in the presence of the substrate. A is given by
# (§4) where k+0 is the rate constant for association of the inhibitor with the enzyme, K^−1 is the inverted Michaelis constant, and [S] the substrate concentration. The apparent inhibition rate constant A is the slope of a plot of log([P∞]−[P]) against t, to give the second-order rate constant of inhibition k+0
# [2] = target: T2, PR3 (Homo sapiens, UniProt P24158); assay: Inhibition of PR3 in a lysate of purified human neutrophils; type: biochemical; conditions: conditions as with purified proteases
# T2 construct: in a lysate of purified human neutrophils; endogenous in cells; host or cells: purified human neutrophils (lysate)
# T2 sequence (P24158 28-248): T1 sequence (P24158 28-248)
# Description: (§5) We first studied the stability and the selectivity of compound 1, 2 and their biotinylated derivatives in a lysate of purified human neutrophils. […] Further, PR3 was selectively inactivated in the neutrophil lysate as shown by western blotting using biotinylated inhibitors.
# [3] = Stability of inhibitors in neutrophil lysate (preincubation before adding substrates); type: in vitro ADME, human; conditions: one hour preincubation of neutrophil lysate-inhibitor mixture
# Description: as §5
# [4] = target: T3, HNE (Homo sapiens, UniProt P08246); assay: Inhibition of protease activity in crude lung secretions of patients (IPF, cystic fibrosis); type: biochemical; conditions: 30 min incubation, IPF and CF samples
# T3 sequence (P08246 30-267): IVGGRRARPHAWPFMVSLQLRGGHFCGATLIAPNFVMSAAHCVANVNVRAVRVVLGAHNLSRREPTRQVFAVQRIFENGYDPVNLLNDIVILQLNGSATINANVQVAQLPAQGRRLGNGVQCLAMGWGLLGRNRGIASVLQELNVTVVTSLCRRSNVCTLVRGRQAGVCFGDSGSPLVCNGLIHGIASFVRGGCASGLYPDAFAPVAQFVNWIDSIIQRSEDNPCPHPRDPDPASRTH
# [5] = target: T2, PR3; assay: Residual activity of purified protease with FRET substrate in presence of increasing amounts of compound; type: biochemical; conditions: PR3 1 nM final, 30 min incubation
# Description: (§6) Phosphonate inhibitors and their biotinylated and fluorescent derivatives were synthesized, purified and controlled by mass spectrometry as reported. Their purity was checked by HPLC (data not shown). Purified Ac-Asp-Tyr-Asp-Ala^P(O—C6H4-4-Cl)2 (compound 1) and Ac-Pro-Tyr-Asp-Ala^P(O—C6H4-4-Cl)2 (compound 2) were first assayed for their inhibitory properties by measuring the residual activity of the human neutrophil serine proteases PR3, HNE and CatG in the presence of increasing amounts of each compound. We used for this purpose the FRET substrates that we developed previously for each protease (18). An almost complete inhibition of PR3 (1 nM final) was obtained after a 30 min incubation time with 20 μM of compound 1 (FIG. 1) and 0.3 μM of compound 2 (FIG. 2). Recombinant PR3K99L, […], HNE and CatG were used in the same experimental conditions. […] This emphasizes the importance of the S2 and S4 subsites to discriminate between PR3 and HNE specificities. Significant inhibition of HNE was obtained using about 100 times more Ac-Pro-Tyr-Asp-Ala^P(O—C6H4-4-Cl)2 than required to inhibit PR3. […] We confirmed this observation kinetically by measuring the second order rate constants kobs/l by competition experiments between the PR3 substrate and each inhibitor (17). As expected the second order rate constant kobs/l for compound 2 was about 100 times greater than that for compound 1 (see Table 1).
# [6] = target: T4, CatG (Homo sapiens, UniProt P08311); assay: as above; type: biochemical; conditions: CatG 1 nM, same experimental conditions as PR3
# T4 sequence (P08311 21-244): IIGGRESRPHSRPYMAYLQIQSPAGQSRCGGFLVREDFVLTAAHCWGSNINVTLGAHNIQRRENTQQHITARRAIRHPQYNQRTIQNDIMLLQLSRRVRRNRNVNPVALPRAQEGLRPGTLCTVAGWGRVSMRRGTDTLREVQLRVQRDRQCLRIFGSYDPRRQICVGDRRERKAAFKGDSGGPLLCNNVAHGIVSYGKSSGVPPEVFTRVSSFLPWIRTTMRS
# Description: as §6
# [7] = target: T3, HNE; assay: as above; type: biochemical
# Description: as §6
# [8] = target: T4, CatG; assay: Inhibition of protease activity in crude lung secretions of patients (IPF, cystic fibrosis); type: biochemical; conditions: 30 min incubation, IPF and CF samples
# [9] = target: T5, Elastase (Homo sapiens, UniProt P08246); assay: Protease inhibition assay, second order rate constant kobs/[I] (method of Tian and Tsou); type: biochemical; conditions: n.s where no significant inhibition
# T5 sequence (P08246 30-267): T3 sequence (P08246 30-267)
# Experimental: as §1, §2, §3, §4
substance,measurement,setting,value
Ac-Pro-Tyr-Asp-Ala^P(O—C6H4-4-Cl)2 (Ac-PYD[AlaP]; not fully specified (C-terminus); printed as Ac-Pro-Tyr-Asp-Ala^P(O—C6H4-4-Cl)2; reading uncertain; also: C-terminal Ala as phosphonate analogue (Ala^P)) [Compound 2],Proteinase 3 kobs/[I],[1],154 ± 3 M⁻¹ s⁻¹
same,kobs/I relative to that of compound 1,[1]; competition between PR3 substrate and inhibitor,about 100 times
same,PR3 activity in neutrophil lysate,[2],totally inactivated
same,inhibition potential after preincubation in neutrophil lysate,[3],No loss of the inhibition potential
same,HNE activity in crude lung secretions,[4],remained unchanged
same,concentration giving almost complete inhibition of PR3,[5],0.3 µM
same,inhibition of CatG,[6],no significant inhibition
same,amount of inhibitor for significant inhibition of HNE relative to that required to inhibit PR3,[7],about 100 times
same,inhibition of HNE,"[7]; HNE 1 nM, same experimental conditions as PR3",no significant inhibition
same,CatG activity in crude lung secretions,[8],remained unchanged
same,Elastase kobs/[I],[9],n.s
